The target in assay [1] is T1, Cynomolgus/Rhesus IL-2Rβ, His tag (Table 10) (cynomolgus monkey / rhesus monkey, UniProt Q38J85 27-240).
T1 sequence: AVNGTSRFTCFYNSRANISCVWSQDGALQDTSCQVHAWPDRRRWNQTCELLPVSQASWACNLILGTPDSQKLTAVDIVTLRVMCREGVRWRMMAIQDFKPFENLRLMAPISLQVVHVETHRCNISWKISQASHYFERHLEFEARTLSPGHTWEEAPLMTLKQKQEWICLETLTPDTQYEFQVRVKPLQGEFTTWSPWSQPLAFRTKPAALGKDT
Description: SPR (Biacore T200). The procedure: A Surface Plasmon Resonance (SPR) assay on a Biacore T200 (GE Healthcare) instrument was used to determine the monovalent affinities of pegylated aldesleukin variants against polyhistidine-tagged or Fc-tagged IL-2 Receptors. Biacore T200 Evaluation Software was used to fit each titration series to a 1:1 binding model or steady state affinity. The association (kₒₙ, M⁻¹ s⁻¹) and dissociation (koff, s⁻¹) rate constants were determined for each set of titrations and used to calculate the dissociation constant, KD=koff/kₒₙ, of each sample against each receptor. koff/kₒₙ values are not reported herein.

Assay [2] deals with T2, human IL-2Rαβγc (on Kit225-STAT5 reporter cells, NK-92 cells, primary Treg cells) (human, UniProt P01589 22-272; P14784 27-551; P31785 23-369).
T2 sequence (looked up) 1: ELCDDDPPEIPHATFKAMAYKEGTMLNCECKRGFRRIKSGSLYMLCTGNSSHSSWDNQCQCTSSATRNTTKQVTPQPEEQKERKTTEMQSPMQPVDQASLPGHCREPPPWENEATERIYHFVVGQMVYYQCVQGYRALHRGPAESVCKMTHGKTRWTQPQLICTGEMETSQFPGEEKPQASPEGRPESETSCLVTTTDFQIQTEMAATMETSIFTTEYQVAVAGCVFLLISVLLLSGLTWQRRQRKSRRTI
T2 sequence (looked up) 2: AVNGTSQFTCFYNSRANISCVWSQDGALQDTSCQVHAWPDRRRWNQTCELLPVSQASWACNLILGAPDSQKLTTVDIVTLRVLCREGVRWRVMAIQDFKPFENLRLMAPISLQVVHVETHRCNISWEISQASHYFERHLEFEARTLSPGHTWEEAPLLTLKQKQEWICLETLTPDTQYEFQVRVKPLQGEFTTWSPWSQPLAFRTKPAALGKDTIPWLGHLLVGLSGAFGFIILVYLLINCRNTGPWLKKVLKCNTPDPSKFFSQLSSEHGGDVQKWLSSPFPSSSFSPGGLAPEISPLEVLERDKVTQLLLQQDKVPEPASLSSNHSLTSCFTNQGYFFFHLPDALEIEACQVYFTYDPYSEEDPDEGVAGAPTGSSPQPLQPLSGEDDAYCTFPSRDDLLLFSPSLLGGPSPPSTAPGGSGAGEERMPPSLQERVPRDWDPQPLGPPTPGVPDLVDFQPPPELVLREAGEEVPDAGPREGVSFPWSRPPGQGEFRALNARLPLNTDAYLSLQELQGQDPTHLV
T2 sequence (looked up) 3: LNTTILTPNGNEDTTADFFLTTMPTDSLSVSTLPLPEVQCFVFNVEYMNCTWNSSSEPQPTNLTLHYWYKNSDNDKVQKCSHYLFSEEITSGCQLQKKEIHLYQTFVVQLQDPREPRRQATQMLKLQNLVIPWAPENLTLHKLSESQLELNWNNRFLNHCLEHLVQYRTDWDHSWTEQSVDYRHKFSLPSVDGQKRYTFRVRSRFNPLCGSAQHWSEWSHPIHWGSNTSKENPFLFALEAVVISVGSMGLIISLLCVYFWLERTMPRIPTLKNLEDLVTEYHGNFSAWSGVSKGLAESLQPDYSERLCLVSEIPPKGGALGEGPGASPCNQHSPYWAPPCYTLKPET
In words: cell-based or functional assay.

Assay [3] deals with T3, human IL-2Rβγc (on DERL-7 cells, U2OS IL2RB/IL2RG cells, CD25 knockout Kit225-STAT5 cells, primary CD8+ CTLs) (human, UniProt P14784 27-551; P31785 23-369).
T3 sequence (looked up) 1: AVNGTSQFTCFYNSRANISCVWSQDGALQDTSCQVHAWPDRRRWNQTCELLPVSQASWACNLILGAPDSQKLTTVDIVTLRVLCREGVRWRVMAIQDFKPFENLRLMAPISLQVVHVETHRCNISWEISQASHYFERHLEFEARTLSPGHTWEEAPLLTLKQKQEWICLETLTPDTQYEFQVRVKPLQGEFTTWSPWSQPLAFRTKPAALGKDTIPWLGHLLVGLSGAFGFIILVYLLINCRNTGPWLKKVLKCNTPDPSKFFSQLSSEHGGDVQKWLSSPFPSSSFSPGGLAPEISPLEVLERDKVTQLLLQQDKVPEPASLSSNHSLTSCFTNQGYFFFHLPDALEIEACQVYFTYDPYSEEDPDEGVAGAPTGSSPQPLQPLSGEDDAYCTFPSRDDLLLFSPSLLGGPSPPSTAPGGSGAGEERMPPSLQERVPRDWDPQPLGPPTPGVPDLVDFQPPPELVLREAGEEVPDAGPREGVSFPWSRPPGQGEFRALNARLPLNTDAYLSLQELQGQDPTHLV
T3 sequence (looked up) 2: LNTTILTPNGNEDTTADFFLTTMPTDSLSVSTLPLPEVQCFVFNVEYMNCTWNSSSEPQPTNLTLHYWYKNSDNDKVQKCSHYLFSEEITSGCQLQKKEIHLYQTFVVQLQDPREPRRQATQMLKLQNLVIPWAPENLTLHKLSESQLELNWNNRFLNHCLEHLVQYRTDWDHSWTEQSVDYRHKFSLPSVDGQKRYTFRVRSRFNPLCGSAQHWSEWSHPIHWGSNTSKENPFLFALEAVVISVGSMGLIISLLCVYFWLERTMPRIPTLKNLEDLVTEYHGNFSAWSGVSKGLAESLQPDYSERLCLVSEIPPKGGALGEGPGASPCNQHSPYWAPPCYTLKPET
In words: cell-based or functional assay.

For assay [4], the target named is T4, mouse IL-2Rαβγc (on CTLL2-STAT5 reporter cells) (mouse, UniProt P01590 22-268; P16297 27-539; P34902 23-369).
T4 sequence (looked up) 1: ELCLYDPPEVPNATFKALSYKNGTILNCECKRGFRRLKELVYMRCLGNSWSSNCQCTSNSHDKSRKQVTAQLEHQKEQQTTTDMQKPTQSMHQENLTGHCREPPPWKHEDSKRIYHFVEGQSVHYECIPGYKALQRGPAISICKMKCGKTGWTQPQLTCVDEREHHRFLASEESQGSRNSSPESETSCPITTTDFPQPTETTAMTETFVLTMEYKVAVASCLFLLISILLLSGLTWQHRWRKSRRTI
T4 sequence (looked up) 2: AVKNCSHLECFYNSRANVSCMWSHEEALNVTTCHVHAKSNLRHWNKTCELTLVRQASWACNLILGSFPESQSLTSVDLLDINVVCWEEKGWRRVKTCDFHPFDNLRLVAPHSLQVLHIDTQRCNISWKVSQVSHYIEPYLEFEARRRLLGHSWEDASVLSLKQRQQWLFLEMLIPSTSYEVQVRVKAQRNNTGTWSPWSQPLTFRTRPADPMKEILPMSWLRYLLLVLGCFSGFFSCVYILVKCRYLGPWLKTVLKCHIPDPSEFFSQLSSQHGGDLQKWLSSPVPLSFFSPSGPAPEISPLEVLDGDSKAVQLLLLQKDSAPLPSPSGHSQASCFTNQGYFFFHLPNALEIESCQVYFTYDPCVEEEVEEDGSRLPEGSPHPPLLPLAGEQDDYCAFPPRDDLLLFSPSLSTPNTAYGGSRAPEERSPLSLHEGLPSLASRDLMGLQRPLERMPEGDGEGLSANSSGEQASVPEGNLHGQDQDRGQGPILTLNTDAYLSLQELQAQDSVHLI
T4 sequence (looked up) 3: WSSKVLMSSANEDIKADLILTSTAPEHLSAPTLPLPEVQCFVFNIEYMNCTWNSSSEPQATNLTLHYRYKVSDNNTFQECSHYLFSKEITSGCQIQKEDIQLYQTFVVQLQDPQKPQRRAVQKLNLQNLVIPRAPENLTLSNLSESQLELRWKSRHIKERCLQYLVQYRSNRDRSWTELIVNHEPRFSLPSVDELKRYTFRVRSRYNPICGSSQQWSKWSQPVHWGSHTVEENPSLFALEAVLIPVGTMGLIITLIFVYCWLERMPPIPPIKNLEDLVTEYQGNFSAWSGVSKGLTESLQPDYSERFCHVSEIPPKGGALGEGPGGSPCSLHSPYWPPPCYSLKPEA
In words: cell-based or functional assay.

*1 amine or outer side, *2 acyl side, *3 side chain or, on linkers, in order; H or OH if unused. Side-chain parts run from the residue outwards. [ ]: non-standard residue; d: D form. pAMF = para-azidomethylphenylalanine, [N-]=[N+]=NCc1ccc(C[C@H](N[*:1])C(=O)[*:2])cc1

B1: Ald_S4pAMF(PEG1)/R37A/F41K (CON1) (ligand)
chain: PTS[pAMF]([DBCO‑triazole-mPEG 30 kDa])STKKTQLQLEHLLLDLQMILNGINNYKNPKLTAMLTKKFYMPKKATELKHLQCLEEELKPLEEVLNLAQSKNFHLRPRDLISNINVIVLELKGSETTFMCEYADETATIVEFLNRWITFSQSIISTLT
modifications: not fully specified (bridges)
notes: also called Des-A1_IL-2_S4pAMF(PEG1)/R37A/F41K/C124S
Consider B1, for which, in assay [1], the “fold lower affinity than aldesleukin” value was found to be 6 fold. In assay [2], the “Kit225-STAT5 EC50” value was determined as 0.45 nM, the “Kit225-STAT5 EC50 Fold-change” value stood at 437 fold, the “NK-92 EC50 Fold-change” value was found to be 117 fold and the “NK-92 proliferation EC50” value was 0.68 nM. In assay [3], the “DERL-7 EC50 Fold-change” value amounted to 17 fold and the “DERL-7 proliferation EC50” value came to 0.73 nM. For the same molecule, in assay [4], the “STAT5-CTLL2 EC50” value was 57.4 nM and the “STAT5-CTLL2 EC50 Fold-change” value is 5300 fold.

For the origin of these results see patent US20210340207A1 (Merck Sharp & Dohme, published 2021).
